Target: human IL-4R alpha on cells (TF-1 cells; human peripheral blood mononuclear cells) (human) (UniProt P24394)
Test: cell-based or functional assay

Dupilumab (antibody)
IC50 (ng/ml), inhibition of IL-4-induced TF-1 cell proliferation: 138 ng/mL

Reference: patent publication US20230203172A1
